The nanobody polyreactivity screen of Harvey et al. (2022)

assay: yeast display, Sf9 membrane polyspecificity reagent, FACS + sequencing; frameworks hold sequencing errors
Method in brief: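 Sorting gates, low and high (top ~1%), were placed on anti-HA fluorescence to track expression and on streptavidin fluorescence to track reagent binding. A clone's polyreactivity label is taken from the gate it came out of. The reagent was 10% biotinylated, detergent-solubilized Sf9 membrane, applied for 1 hour at 4 °C to galactose-induced yeast display cells.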

Sequence | polyreactivity (PSR sort gate)
QVQLVESGGGLVQAGGSLRLSCAASGRIFASYAMGWYRQAPGKERELVAAISLSGGSTYYADSVKGRFTISRDNAKNTVYLLMNSLKPEDNAVYYCNRLSNNREYVYWGQGTQLTVSS | high polyreactivity
QVQLVESGGGLVQAGGSLRLSCAASGRIFASYAMGWYRQAPGKERELVAAITRSGGRTYYADSVKGRFTISRDNAKNTVYLQMNSLKPADTAVDYCAVDTVTRTVLVYGDRNDSWGQGTQVTVSS | high polyreactivity
QVQLVESGGGLVQAGGSLRLSCAASGRIFASYTMGWYRQAPGKETELVAAISWRGDGTYYADSVKGRFTISRDYAKNTVYLQMNSLKPEDTAVYYCAADYVYYYHEYDYWGQGTQVTVSS | low polyreactivity
QVQLVESGGGLVQAGGSLRLSCAASGRIFASYVMGWYRQAPGKERELVAAISYGGSRTYYADSVKGRFTISRDNAKNTVYLQMNSLKPEDTAVYYCNARSKFYYHYWMDYWGQGTQVTVSS | high polyreactivity
QVQLVESGGGLVQAGGSLRLSCAASGRIFAVNAMGLYRQAPGKERELVARIRRIGGSTYYADSVKGRFTISRDNAKNTVYLQMNSQKPEDTAVYYCAAVSRVWLNLYNYWGQGTQVTVSS | high polyreactivity
QVQLVESGGGLVQAGGSLRLSCAASGRIFAVNAMGWYRQAPGKERELVASIRWSGGSTYYADSVKGRFTISRDNAKNTVYLQMNSLKPEDTAVYYCAAVIYLWGQGTQVTVSS | high polyreactivity
QVQLVESGGGLVQAGGSLRLSCAASGRIFAVNAMGWYRQAPGKERELVASIRWSGGSTYYADSVKGRFTISRDNAKNTVYLQMNTLKPEDTAVYYCNKVRGKTYYGEGDYWGQGTQVTVSS | high polyreactivity
QVQLVESGGGLVQAGGSLRLSCAASGRIFAVNAMGWYRQAPGKERELVATINSGGNTNYADSVKGRFTISRDNAKNTVYLQMNSLKPVDTAVYYCAARAFSAWLEMDYWGQGTQVTVSS | low polyreactivity
QVQLVESGGGLVQAGGSLRLSCAASGRIFAVYAMGWYRQAPGKERELVAAIRWSGVRTYYADSVTGRFTISRDTAKKTVYLQMNSLKPEDTAVYYCAADYSGQYYSPVSYLYDYWGQGTQVTVSS | high polyreactivity
QVQLVESGGGLVQAGGSLRLSCAASGRIFAWYAMGWYRQAPGKERELVAAISSGGSTNYADSVKGRFTISRDNAKNTVYLQMNSLKPEDTAVYYCNRYPVRDTGGYWGQGTQVTVSS | low polyreactivity
QVQLVESGGGLVQAGGSLRLSCAASGRIFAYNAMGWYRQAPGKERELVAAISWRVGCTYYADSVKGRFTISRDHAKNTVYLQMNSLKPEDTAVYYCNEAYYRHYQGDYWGQGTQVTVSS | high polyreactivity
QVQLVESGGGLVQAGGSLRLSCAASGRIFAYNTMGWSRQAPGKERELVAVITSGGSTNYADSVKGRFTISRDNAKNTVYLQMNSLKPEDTAVYYCAKRPYCRSGGSRYDYWGQGTQVTVSS | high polyreactivity
QVQLVESGGGLVQAGGSLRLSCAASGRIFAYYAMGWYRQAPGKERELVAAINRSGVRTYYADSVKGRFTISRDNAMNTVYFQINSLKPEDTAVYYCAAYVVGGEGDYWGQGTQVTVSS | high polyreactivity
QVQLVESGGGLVQAGGSLRLSCAASGRIFAYYAMGWYRQAPGKERELVAAITSDGSSTYYADSVKGRFTISRDNAKNTVYLQMNSLKPEDTAVDYCAAGTYPFWDWIFDLWVDYWGQGTQVTVSS | high polyreactivity
QVQLVESGGGLVQAGGSLRLSCAASGRIFAYYAMGWYRQAPGKERELVADITRSGARTYYADSVKGRFTISRDNANNTVYLQMNSLTPEDTAVYYCAAEGVRIGTRYDYWGQGTQVTVSS | high polyreactivity
QVQLVESGGGLVQAGGSLRLSCAASGRIFAYYTMGWYRQAPGKERELVAAITNGGRTSYADSVKGRFTISRDNAKNTVYLQMNSLKPEDTAVYYCNAQQYRWPRVYYNYNYWGQGTQVTVSS | high polyreactivity
QVQLVESGGGLVQAGGSLRLSCAASGRIFDANAMGWYRQAPGKERELVAAITYSGGRTYYADSVKGRFTISRDNAKNTVYLQMNSLKPVDTAVYYCAKRYAYIYDSWGQGTQVTVSS | low polyreactivity
QVQLVESGGGLVQAGGSLRLSCAASGRIFDDNAMGWYRQAPGKERELVAAITGPDDSTDYADSVKGRFTISRDNAKNTVYLQMNSLKPEDTAVYYCAKDAGYWYYWNGYWGQGTQVTVSS | high polyreactivity
QVQLVESGGGLVQAGGSLRLSCAASGRIFDDYAMGWYRQAPGKERELVAAISWSGGSTYYADSVKGRFTISRDNAKNTVYLQMNSLKPEDTAVYYCAAPYHSYKRIGYDYWGQGTQVTVSS | low polyreactivity
QVQLVESGGGLVQAGGSLRLSCAASGRIFDEYAMGWYRQAPGKERELVAAIDTSTGSTYYADSVKGRFTISRDNAKNTVYLQMNSLKPEDTAVYYCAAEVYFGLFYVVFQYDYWGQGTQVTVSS | high polyreactivity
QVQLVESGGGLVQAGGSLRLSCAASGRIFDGNAMGWYRQAPGKERELVAAISSRGARTYYADSVKGRFTISRDNAKNTVYLQMNSLKPEDTAVYYCNKDLDSLSGAEYDYWGQGTQVTVSS | high polyreactivity
QVQLVESGGGLVQAGGSLRLSCAASGRIFDGYAMGWYRQAPGKERELVAAISSRGGRTYYADSVKGRFTISRDNAKNTVYLQMNSLKPEDTAVYYCAGDDPYGEGDYWGQGTQVTVSS | low polyreactivity

Sequence | polyreactivity (PSR sort gate)
QVQLVESGGGLVQAGGSLRLSCAASGRIFDGYAMGWYRQAPGKERELVATITGDGGSTYYADSVKGRFTISRDNAKNTVYLQMNSLKPEDTAVYYCAARLTRRLSWYLYNNDYWGQGTQVTVSS | high polyreactivity
QVQLVESGGGLVQAGGSLRLSCAASGRIFDGYAMGWYRQAPGKESELVAAISSRGGRTYYADSVKGRFTISRDNAKNTVYLQMNSLKPEDTAVYYCAGDDPYGEGDYWGQGTQVTVSS | low polyreactivity
QVQLVESGGGLVQAGGSLRLSCAASGRIFDGYVMGWYRQAPGKERELVAAISASGGSTYYADSVKGRFTISRDNAKNTVYLQMNSLKPEDTAVYYCATDALYGYDYWGQGTQVTVSS | high polyreactivity
QVQLVESGGGLVQAGGSLRLSCAASGRIFDHYAMVWYRQAPGKERELVAAITRSGGITYYADSVKGRFTISRDNAKYTVYLQMNSLKPEDTAVYYCAALSYRYTDNFDYWGQGTQVTVSS | low polyreactivity
QVQLVESGGGLVQAGGSLRLSCAASGRIFDIYALGWYRQAPGKERELVAAITWRGGSTYYADSVKGRFTISRDNAKNTVYLQMNSLKPEDTAVYYCAVDFITPRGSYYWGQGTQVTVSS | low polyreactivity
QVQLVESGGGLVQAGGSLRLSCAASGRIFDIYAMGWYRQAAGKERELVAAIRLSSGTTYYADSVKGRFTISRDNAKNTVYLQMNSLKPEDTAVYYCGADFIRPPYDYWGQGTQVTVSS | high polyreactivity
QVQLVESGGGLVQAGGSLRLSCAASGRIFDKYTMGWYRQAPGKERELVAAISKSGSGTFYADSVKGRFTISRDNAKNTVYLQMNSLKPEDTAVYYCARVYTVGTGRSWRLDYWGQGTQVTVSS | high polyreactivity
QVQLVESGGGLVQAGGSLRLSCAASGRIFDLKAMGWYRQAPGERKGVGCLYFLVWWSTYYADSVKGRFTISRDNAKNTVYLQMNSLKPVDTAVYYCAAVYFYSWEGDGDYWGQGTQVTVSS | low polyreactivity
QVQLVESGGGLVQAGGSLRLSCAASGRIFDLNAMGWYRQAPGKERELVAVIDSYGSTYYADSVKGRFTISRDNAKNTVYLQMNSQKPEDSAVYYCTKYWYSRHVRYWAYYAEQRYDYWGQGTQVTVSS | low polyreactivity
QVQLVESGGGLVQAGGSLRLSCAASGRIFDLNAMGWYRQAPGKETELVAAISYSGGRTFYADSVKGRFTISRDNAKNTVYLQMNSLKPEDTAVYYCNARYGKPAYQYGMDYWGQGTQVTVSS | low polyreactivity
QVQLVESGGGLVQAGGSLRLSCAASGRIFDLYTMGWYRQAPGKERELVAAIRWSDGSTYYADSVKGRFTISRDNAKNTDYLQMNSLKPEDTAVYYCAADSRTSYYNDDYDYWGQGTQVTVSS | low polyreactivity
QVQLVESGGGLVQAGGSLRLSCAASGRIFDQYAMAWYRQAPGKERELVATISGSGGSTYYADSVKGRFTISRDNAKNTVYLQMNSLKPEDTAVYYCAAVSVSSWYDYWGQGTQVTVSS | low polyreactivity
QVQLVESGGGLVQAGGSLRLSCAASGRIFDRNAMGWYRQAPGKERELVAAITRSGGRPYYADSVKGRFTISRDNAKNTVYLQMNSLKPEDTAVYYCNRGYPRSVVHYNSWGQGTQVTVSS | high polyreactivity
QVQLVESGGGLVQAGGSLRLSCAASGRIFDRYDMGWYRQAPGKERELVAGITASGGSTYYADSVKGRFTISRDNAKNTVYLQMTSLKPEDTAVYYCAVVYGYRYYYWGQGTQVTVSS | high polyreactivity
QVQLVESGGGLVQAGGSLRLSCAASGRIFDSYAMGWYRQAPGKERELVASITCSGGSTYADSVKGRFTSSRDNAKNTVYLQMNSLKPEDTAVYYFDYWGQGTQVTVSS | low polyreactivity
QVQLVESGGGLVQAGGSLRLSCAASGRIFDTNAMGWYRQAPGKERELVAAITYSGGSTYYADSVKGRFTISRDNAKNTVYLQMNSLKPEDTAVYYCARVRPYSKYAYGYWGQGTQVTVSS | high polyreactivity
QVQLVESGGGLVQAGGSLRLSCAASGRIFDTNVMGWYRQAPGTDRDFVAAIRWNGGSTNYADSVKGRFTISRDNSKNTVYLQMNSLKPEDTAVYYCAADGYIGWRHIYEYWGQATQVTVSS | low polyreactivity
QVQLVESGGGLVQAGGSLRLSCAASGRIFDVNAMGWYRQAPGKERELVAAIRSGGRTNYADSVKGRFTISRDNAKNTVYLQMNSLKPEDTAVYYCAAVVWSSLDDYWGLGTQVTVSS | high polyreactivity
QVQLVESGGGLVQAGGSLRLSCAASGRIFDVYAMGWYRQAPGKERALVAAITFSGGSTYYADSVKGRFTISRDNAKNTVYLQMNSLKPEDTAVYYCAAEYVDWFGDYDYWGQGTQVTVSS | high polyreactivity
QVQLVESGGGLVQAGGSLRLSCAASGRIFDWYVMGWYRQAPGKERELVAAINSGVSTKYADSVKGRFTISRDNAKNTVYLQMNSLKPEDTAVYYCAAQSFSDYRRTGRKSSYYYWGQGTQVTVSS | low polyreactivity
QVQLVESGGGLVQAGGSLRLSCAASGRIFDYNAMGWYRQAPVKERELVATITTGGSTYYADSVKGRFTISRDNAKNTVYLQMYSLKPEDTAVYYCAARRWYFHYFAYGYWGQGTQVTVSS | low polyreactivity
